Source: patent US10828372B2, “Compositions and methods for the inhibition of fibrosis” (WISCONSIN ALUMNI RESEARCH FOUNDATION, priority 2017, dated 2020)
Where no end group is shown, it is not given here.

Assays:
[1] = UUO kidney ECM fraction, s.c. approximately 12.5 mg/kg daily; extrapolated
Protocol: Unilateral Ureteral Obstruction model. Male C57BL/6 mice were purchased from Envigo (Madison, Wis.) and housed in the Wisconsin Institutes for Medical Research animal facilities at the University of Wisconsin-Madison with ad-libitum access to food and water. Animals were maintained in humidity and temperature-controlled rooms under 12 h light/dark cycles. All work was conducted under protocol M5421, reviewed and approved by the University of Wisconsin-Madison Institutional Animal Care and Use Committee. All efforts were made to minimize suffering. The Unilateral Ureteral Obstruction (UUO) model is a rodent surgical model representing a human equivalent of […]. Obstruction results in marked dilatation of the ureter together with reduced renal blood flow and glomerular filtration. […]
Tissue extraction and immunoblotting: Kidney tissues were fractionated as described in the art. […] Relative quantitation of specific blotted protein was performed by assessing band intensities using Image J and normalizing to bands obtained with rabbit anti-Histone 3 rabbit IgG (CellSignalTechnology, Danves, Mass., USA) or goat anti-GAPDH-HRP conjugated IgG (Genscript, Piscataway, N.J., USA), which were used as loading controls for ECM or lysate fractions, respectively.

[2] = target: T1, 70K N-terminal domain of FN (Homo sapiens, UniProt P02751); settings: background statement; cited from earlier work
T1 construct: specifically to the 70K N-terminal domain of FN involved in fibrillogenesis

[3] = Fluorescence imaging (IVIS) of subcutaneous dose absorption; format: in vivo, mouse
Protocol: Preparation of Animal Experiment FUD and 10-40 kDa PEG-FUD Drug Dose: A 12.5 mg FUD equivalents per kg of mouse weight drug dose spiked with 1.5% Cy5 labeled drug was prepared by mixing an appropriate amount of unlabeled and labeled drug in a conical vial. The drug was then dialyzed ON into phosphate buffered saline (pH 7.4) using a 3000 MWCO dialysis membrane. The total volume of the dose was reduced to the appropriate value using a 3000 MWCO Amicon® Ultra-15 centrifugal unit. The final concentration of the drug was determined using a UV-vis spectrophotometer and the 646 nm extinction coefficient of Cy5, ε=271000 L·mol^−1·cm^−1.
10 week old mice weighing 20-23 g were placed under 2% isoflurane anesthesia and positioned on their abdomen inside of an IVIS Spectrum In Vivo Imaging System. A 100 uL dose containing 0.27 mg (12.5 mg/kg) of FUD or FUD equivalents of 10-40 kDa PEG-FUD that was spiked with 1.5% Cy5 labeled drug was delivered subcutaneously between the shoulder blades of the animals (n=3 per treatment group). The animals were imaged before the injection, immediately following injection, and at time points of 30 minutes and 1, 3, 6, 12, 24, 36, and 48 hours. The animals were sacrificed following the last time point and their organs were harvested for ex vivo fluorescence imaging and drug extraction and quantification. LivingImage® (PerkinElmer) software was used to analyze the views of each animal group. The autodraw feature of the software set to a 5% threshold was used to create unique regions of interest (ROI) on each animal at t=30 mins views that were consistently applied to each subsequent time point views to quantify drug levels present at the site of injection. Baseline autoflorescence values calculated from ROIs applied to “before injection” views were subtracted from the values of each time point's animals. The ROI values obtained from the t=30 mins views were used to calculate % dose remaining for each subsequent time point.

T1 sequence (P02751 32-609 limits assumed): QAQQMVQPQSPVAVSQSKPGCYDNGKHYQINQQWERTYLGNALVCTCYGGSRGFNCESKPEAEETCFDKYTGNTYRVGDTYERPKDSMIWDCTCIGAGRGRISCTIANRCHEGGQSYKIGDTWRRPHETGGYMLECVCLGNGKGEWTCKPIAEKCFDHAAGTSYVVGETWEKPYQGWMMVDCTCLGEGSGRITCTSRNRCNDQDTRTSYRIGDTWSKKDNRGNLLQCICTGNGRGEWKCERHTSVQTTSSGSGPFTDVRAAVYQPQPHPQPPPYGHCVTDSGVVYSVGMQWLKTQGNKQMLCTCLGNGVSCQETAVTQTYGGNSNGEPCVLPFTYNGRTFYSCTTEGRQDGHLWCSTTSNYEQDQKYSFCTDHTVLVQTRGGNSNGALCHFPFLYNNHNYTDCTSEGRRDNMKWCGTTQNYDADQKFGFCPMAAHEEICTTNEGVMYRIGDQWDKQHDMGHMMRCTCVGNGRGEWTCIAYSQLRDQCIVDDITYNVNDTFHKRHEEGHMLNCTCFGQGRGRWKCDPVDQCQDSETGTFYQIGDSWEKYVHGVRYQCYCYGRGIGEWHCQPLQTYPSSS

Substance	PEG-FUD level in kidney [1] [ng per mg]	binding affinity [2]	% dose remaining at the site of injection after 24 hours ([3]; s.c. 12.5 mg/kg FUD equivalents, 24 hours) [%]	apparent half-life at the site of injection ([3]; s.c. 12.5 mg/kg, spiked with 1.5% Cy5 labeled drug, nude mice) [min]
PEG-FUD: PEGylated FUD prepared as in Example 1, PEG size not stated; approximately 27 kDa by mass spectrometry, likely the 20 kDa conjugate (KDQSPLAGESGETEYITEVYGNQQNPVDIDKKLPNETGFSGNMVETEDT; not fully specified (N-terminus); also: PEG size not given here)	~50	–	–	–
FUD: 49 amino acid FUD peptide, SEQ ID NO: 1, recombinantly expressed, His-tag removed; inhibitor of fibronectin fibrillogenesis (KDQSPLAGESGETEYITEVYGNQQNPVDIDKKLPNETGFSGNMVETEDT; human) [reference compound]	–	nanomolar affinity	0.3	35
